Measurements taken from the supplement of paper PMC10567573.

B1: FBXO3 (parent)
chain: AGGFQQRQGLKYCLPLTFCIHTGL

Variants of: B1
Test: protein stability index of a GFP-peptide fusion (GPS, HEK-293T) (PSI 1-6); higher = more stable
Details: c terminus: a fixed tail appended
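Also: lentivirally expressed fusions sorted by FACS into six bins by GFP to DsRed ratio, PSI derived from sequencing read proportions per bin multiplied by bin number.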

Variant | protein stability index
FGGFQQRQGLKYCLPLTFCIHTGL [A1F] | 3.41
GGGFQQRQGLKYCLPLTFCIHTGL [A1G] | 3.9
PGGFQQRQGLKYCLPLTFCIHTGL [A1P] | 2.91
WGGFQQRQGLKYCLPLTFCIHTGL [A1W] | 5.07
VGGFQQRQGLKYCLPLTFCIHTGL [A1V] | 2.89
QGGFQQRQGLKYCLPLTFCIHTGL [A1Q] | 2.55
CGGFQQRQGLKYCLPLTFCIHTGL [A1C] | 2.76
EGGFQQRQGLKYCLPLTFCIHTGL [A1E] | 2.57
AGGFQQRQGLKYCLPLTFCIHTNL [G23N] | 2.97
AGGFQQRQGLKYCLPLTFCIHTWL [G23W] | 2.97
AGGFQQRQGLKYCLPLTFCIHTLL [G23L] | 2.67
AGGFQQRQGLKYCLPLTFCIHTAL [G23A] | 3.52
AGGFQQRQGLKYCLPLTFCIHTIL [G23I] | 1.85
AGAFQQRQGLKYCLPLTFCIHTGL [G3A] | 1.48
AGKFQQRQGLKYCLPLTFCIHTGL [G3K] | 2.51
AGYFQQRQGLKYCLPLTFCIHTGL [G3Y] | 3.02
AGPFQQRQGLKYCLPLTFCIHTGL [G3P] | 1.51
AGSFQQRQGLKYCLPLTFCIHTGL [G3S] | 2.44
AGFFQQRQGLKYCLPLTFCIHTGL [G3F] | 3.02
AGNFQQRQGLKYCLPLTFCIHTGL [G3N] | 3.27
AGGFQQRQGLKYCLPLTFCISTGL [H21S] | 2.72
AGGFQQRQGLKYCLPLTFCIGTGL [H21G] | 2.73
AGGFNQRQGLKYCLPLTFCIHTGL [Q5N] | 2.77
AGGFHQRQGLKYCLPLTFCIHTGL [Q5H] | 1.87

Variant | protein stability index
AGGFQQRLGLKYCLPLTFCIHTGL [Q8L] | 2.56
AGGFQQRDGLKYCLPLTFCIHTGL [Q8D] | 1.88
AGGFQQRAGLKYCLPLTFCIHTGL [Q8A] | 2.82
AGGFQQRHGLKYCLPLTFCIHTGL [Q8H] | 2.66
AGGFQQRQGLQYCLPLTFCIHTGL [K11Q] | 2.75
AGGFQQRQGLDYCLPLTFCIHTGL [K11D] | 3.52
AGGFQQRQGLEYCLPLTFCIHTGL [K11E] | 2.8
AGGFQQRQGLNYCLPLTFCIHTGL [K11N] | 1.99
AGGFQQRQGLMYCLPLTFCIHTGL [K11M] | 1.96
AGGFQQRQGLCYCLPLTFCIHTGL [K11C] | 2.12
AGGFQQRQGLKYCLPQTFCIHTGL [L16Q] | 1.52
AGGFQQRQGLKYCLPITFCIHTGL [L16I] | 3.02
AGGFQQRQGLKYCLPETFCIHTGL [L16E] | 2.03
AGGFQQRQGLKYCLPWTFCIHTGL [L16W] | 2.89
AGGFQQRQGLKYCLPYTFCIHTGL [L16Y] | 2.33
AGGTQQRQGLKYCLPLTFCIHTGL [F4T] | 2.82
AGGMQQRQGLKYCLPLTFCIHTGL [F4M] | 2.69
AGGSQQRQGLKYCLPLTFCIHTGL [F4S] | 2.38
AGGPQQRQGLKYCLPLTFCIHTGL [F4P] | 2.09
AGGFQQRQGLKYCVPLTFCIHTGL [L14V] | 4.27
AGGFQQRQGLKYCNPLTFCIHTGL [L14N] | 2.34
AGGFQQRQGLKYCEPLTFCIHTGL [L14E] | 1.97
AGGFQQRQGLKYCYPLTFCIHTGL [L14Y] | 2.16
AGGFQQRQHLKYCLPLTFCIHTGL [G9H] | 2.94

Variant | protein stability index
AGGFQQRQTLKYCLPLTFCIHTGL [G9T] | 3.85
AGGFQQRQQLKYCLPLTFCIHTGL [G9Q] | 2.5
AGGFQQRQGLKYCLRLTFCIHTGL [P15R] | 2.51
AGGFQQRQGLKYCLILTFCIHTGL [P15I] | 3.05
AGGFQQRQGLKYCLKLTFCIHTGL [P15K] | 1.13
AGGFQQRQGLKYCLPLTFCPHTGL [I20P] | 2.11
AGGFQQRQGLKYCLPLTFCCHTGL [I20C] | 3.77
AGGFQQRQGLKYCLPLTFCRHTGL [I20R] | 3.02
AGGFQQRQGLKYCLPLTFCSHTGL [I20S] | 2.43
AGGFQQRQGQKYCLPLTFCIHTGL [L10Q] | 3.23
AGGFQQRQGEKYCLPLTFCIHTGL [L10E] | 2.19
AGGFQQRQGFKYCLPLTFCIHTGL [L10F] | 2.03
AGGFQQRQGTKYCLPLTFCIHTGL [L10T] | 2.53
AGGFQQRQGWKYCLPLTFCIHTGL [L10W] | 3.49
AGGFQQRQGHKYCLPLTFCIHTGL [L10H] | 1.64
AGGFQQIQGLKYCLPLTFCIHTGL [R7I] | 2.12
AGGFQQEQGLKYCLPLTFCIHTGL [R7E] | 2.83
AGGFQQGQGLKYCLPLTFCIHTGL [R7G] | 3.16
AGGFQCRQGLKYCLPLTFCIHTGL [Q6C] | 2.8
AGGFQGRQGLKYCLPLTFCIHTGL [Q6G] | 2.7
AGGFQHRQGLKYCLPLTFCIHTGL [Q6H] | 3.73
AGGFQYRQGLKYCLPLTFCIHTGL [Q6Y] | 2.09
AGGFQIRQGLKYCLPLTFCIHTGL [Q6I] | 3.58
AGGFQWRQGLKYCLPLTFCIHTGL [Q6W] | 3.85

Variant | protein stability index
AGGFQKRQGLKYCLPLTFCIHTGL [Q6K] | 3.51
AGGFQQRQGLKYCLPLTACIHTGL [F18A] | 2.38
AGGFQQRQGLKYCLPLTMCIHTGL [F18M] | 2.41
AGGFQQRQGLKYCLPLTSCIHTGL [F18S] | 1.4
AGGFQQRQGLKYCLPLTGCIHTGL [F18G] | 1.1
AGGFQQRQGLKYQLPLTFCIHTGL [C13Q] | 3
AGGFQQRQGLKYMLPLTFCIHTGL [C13M] | 2.51
AGGFQQRQGLKYYLPLTFCIHTGL [C13Y] | 2.22
AGGFQQRQGLKYLLPLTFCIHTGL [C13L] | 1.69
AGGFQQRQGLKYVLPLTFCIHTGL [C13V] | 3.35
AGGFQQRQGLKYWLPLTFCIHTGL [C13W] | 3.43
AGGFQQRQGLKYCLPLKFCIHTGL [T17K] | 2.75
AGGFQQRQGLKYCLPLIFCIHTGL [T17I] | 2.65
AGGFQQRQGLKYCLPLWFCIHTGL [T17W] | 3.79
AGGFQQRQGLKYCLPLCFCIHTGL [T17C] | 2.73
AGGFQQRQGLKYCLPLRFCIHTGL [T17R] | 2.87
AGGFQQRQGLKYCLPLLFCIHTGL [T17L] | 2.11
AGGFQQRQGLKYCLPLMFCIHTGL [T17M] | 3.43
AGGFQQRQGLKYCLPLTFCIHTGA [L24A] | 2.48
AGGFQQRQGLKYCLPLTFCIHTGF [L24F] | 2.33
AGGFQQRQGLKYCLPLTFCIHTGN [L24N] | 2.3
AGGFQQRQGLKYCLPLTFCIHTGS [L24S] | 2.14
